# Results: the supplement of paper PMC9112550, “Optimization of the antimicrobial peptide Bac7 by deep mutational scanning” (BMC Biology, 2022)
# System: Escherichia coli TOP10
# Assay: shrunken log2 fold change of peptide-encoding DNA abundance (4.5 h post-induction vs induction); higher = less antimicrobial activity (less host growth inhibition)
# Conditions: time post-induction: 4.5 h; library: site-saturation at positions 5, 18, 19, 20
# 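Also: peptides expressed intracellularly from a pBAD plasmid library in pooled LB shake-flask culture, induced with 0.3% L-arabinose, DNA abundance read by NGS, three biological replicates, DESeq2 with apeglm shrinkage.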
row,Sequence,shrunken log2 fold change
1,RRIRGRPPRLPRPRPRPTDVPRP,0.307
2,RRIRWRPPRLPRPRPRPLAEPRP,1.13
3,RRIRPRPPRLPRPRPRPPKPPRP,0.0495
4,RRIRYRPPRLPRPRPRPFVKPRP,-0.79
5,RRIRNRPPRLPRPRPRPFTLPRP,-0.884
6,RRIRERPPRLPRPRPRPQVMPRP,-0.303
7,RRIRFRPPRLPRPRPRPTRKPRP,0.516
8,RRIRWRPPRLPRPRPRPDTRPRP,-0.0523
9,RRIRGRPPRLPRPRPRPTAYPRP,0.656
10,RRIRHRPPRLPRPRPRPDSFPRP,-0.477
11,RRIRERPPRLPRPRPRPLVEPRP,-0.229
12,RRIRFRPPRLPRPRPRPEQKPRP,0.341
13,RRIRGRPPRLPRPRPRPQNSPRP,-0.506
14,RRIRQRPPRLPRPRPRPRYAPRP,0.0355
15,RRIRGRPPRLPRPRPRPNMWPRP,0.274
16,RRIRLRPPRLPRPRPRPSTHPRP,-0.59
17,RRIRERPPRLPRPRPRPTDYPRP,-0.349
18,RRIRKRPPRLPRPRPRPPPQPRP,1.02
19,RRIRQRPPRLPRPRPRPVWKPRP,0.121
20,RRIRFRPPRLPRPRPRPYHAPRP,-0.0961
21,RRIRLRPPRLPRPRPRPLWWPRP,0.531
22,RRIRDRPPRLPRPRPRPMDIPRP,0.0403
23,RRIRFRPPRLPRPRPRPCICPRP,-0.136
24,RRIRRRPPRLPRPRPRPNIKPRP,0.153
25,RRIRRRPPRLPRPRPRPGYWPRP,0.535

row,Sequence,shrunken log2 fold change
1,RRIRERPPRLPRPRPRPPPQPRP,0.553
2,RRIRFRPPRLPRPRPRPLKIPRP,-0.24
3,RRIRHRPPRLPRPRPRPWNYPRP,-0.617
4,RRIRIRPPRLPRPRPRPDFLPRP,-0.725
5,RRIRFRPPRLPRPRPRPLHAPRP,0.0292
6,RRIRWRPPRLPRPRPRPNNVPRP,-0.207
7,RRIRGRPPRLPRPRPRPLFCPRP,0.367
8,RRIRGRPPRLPRPRPRPGHQPRP,0.124
9,RRIRYRPPRLPRPRPRPQTSPRP,-1.22
10,RRIRVRPPRLPRPRPRPCIWPRP,0.0495
11,RRIRVRPPRLPRPRPRPTCGPRP,0.0207
12,RRIRHRPPRLPRPRPRPYWMPRP,-1.63
13,RRIRFRPPRLPRPRPRPWYRPRP,-0.0778
14,RRIRNRPPRLPRPRPRPFVRPRP,-0.0373
15,RRIRFRPPRLPRPRPRPCMNPRP,0.0346
16,RRIRIRPPRLPRPRPRPFHSPRP,-0.16
17,RRIRGRPPRLPRPRPRPDRWPRP,0.703
18,RRIRRRPPRLPRPRPRPWHHPRP,-0.242
19,RRIRCRPPRLPRPRPRPIWMPRP,-0.677
20,RRIRWRPPRLPRPRPRPRMDPRP,0.211
21,RRIRKRPPRLPRPRPRPDLRPRP,0.103
22,RRIRQRPPRLPRPRPRPGKYPRP,-0.17
23,RRIRYRPPRLPRPRPRPAICPRP,0.0426
24,RRIRYRPPRLPRPRPRPKFTPRP,-0.328
25,RRIRLRPPRLPRPRPRPPIKPRP,-0.179

row,Sequence,shrunken log2 fold change
1,RRIRGRPPRLPRPRPRPTWCPRP,0.521
2,RRIRERPPRLPRPRPRPHYRPRP,0.05
3,RRIRPRPPRLPRPRPRPLSHPRP,-0.27
4,RRIRPRPPRLPRPRPRPSGEPRP,0.126
5,RRIRPRPPRLPRPRPRPMIHPRP,-0.696
6,RRIRNRPPRLPRPRPRPPLYPRP,-0.101
7,RRIRHRPPRLPRPRPRPDGGPRP,-0.137
8,RRIRRRPPRLPRPRPRPWCVPRP,-0.032
9,RRIRRRPPRLPRPRPRPEWWPRP,-0.0131
10,RRIRERPPRLPRPRPRPQVKPRP,-0.2
11,RRIRERPPRLPRPRPRPNRKPRP,-0.0495
12,RRIRFRPPRLPRPRPRPGTEPRP,0.0589
13,RRIRSRPPRLPRPRPRPKDGPRP,0.307
14,RRIRGRPPRLPRPRPRPPYNPRP,-0.163
15,RRIRVRPPRLPRPRPRPGAKPRP,0.189
16,RRIRNRPPRLPRPRPRPHPCPRP,0.231
17,RRIRGRPPRLPRPRPRPKTSPRP,0.702
18,RRIRIRPPRLPRPRPRPLGCPRP,-0.0574
19,RRIRQRPPRLPRPRPRPYVEPRP,-0.537
20,RRIRFRPPRLPRPRPRPWTVPRP,-0.0388
21,RRIRIRPPRLPRPRPRPLMEPRP,-0.278
22,RRIRSRPPRLPRPRPRPWMNPRP,-0.267
23,RRIRERPPRLPRPRPRPRRPPRP,0.27
24,RRIRARPPRLPRPRPRPSMHPRP,0.163
25,RRIRIRPPRLPRPRPRPQEAPRP,0.0332

row,Sequence,shrunken log2 fold change
1,RRIRPRPPRLPRPRPRPMHFPRP,0.015
2,RRIRLRPPRLPRPRPRPAHEPRP,0.408
3,RRIRTRPPRLPRPRPRPHQAPRP,-0.00677
4,RRIRFRPPRLPRPRPRPMCRPRP,-0.218
5,RRIRERPPRLPRPRPRPWICPRP,-0.378
6,RRIRFRPPRLPRPRPRPNVEPRP,0.0199
7,RRIRIRPPRLPRPRPRPEVMPRP,-0.195
8,RRIRGRPPRLPRPRPRPYTLPRP,-0.616
9,RRIRARPPRLPRPRPRPNARPRP,0.124
10,RRIRMRPPRLPRPRPRPPYSPRP,-0.0464
11,RRIRLRPPRLPRPRPRPCRVPRP,-0.141
12,RRIRGRPPRLPRPRPRPKPMPRP,0.419
13,RRIRWRPPRLPRPRPRPCSHPRP,-0.264
14,RRIRHRPPRLPRPRPRPNMIPRP,-0.928
15,RRIRTRPPRLPRPRPRPLPMPRP,-0.0573
16,RRIRGRPPRLPRPRPRPACTPRP,1.17
17,RRIRCRPPRLPRPRPRPMADPRP,-0.0181
18,RRIRFRPPRLPRPRPRPKQGPRP,-0.00975
19,RRIRQRPPRLPRPRPRPHSNPRP,-0.0311
20,RRIRVRPPRLPRPRPRPQASPRP,0.322
21,RRIRQRPPRLPRPRPRPFFFPRP,0.0337
22,RRIRGRPPRLPRPRPRPGMIPRP,0.309
23,RRIRPRPPRLPRPRPRPSIVPRP,-0.662
24,RRIRMRPPRLPRPRPRPSHVPRP,-0.0609
25,RRIRERPPRLPRPRPRPKWTPRP,0.0657

row,Sequence,shrunken log2 fold change
1,RRIRRRPPRLPRPRPRPQWRPRP,0.364
2,RRIRIRPPRLPRPRPRPMVAPRP,-0.14
3,RRIRGRPPRLPRPRPRPRRIPRP,0.451
4,RRIRIRPPRLPRPRPRPYQCPRP,-0.349
5,RRIRHRPPRLPRPRPRPRFTPRP,0.007
6,RRIRFRPPRLPRPRPRPSWWPRP,0.212
7,RRIRYRPPRLPRPRPRPGTLPRP,-0.803
8,RRIRHRPPRLPRPRPRPMMDPRP,-0.214
9,RRIRRRPPRLPRPRPRPSPDPRP,0.608
10,RRIRLRPPRLPRPRPRPMTPPRP,-0.023
11,RRIRTRPPRLPRPRPRPGLVPRP,0.0962
12,RRIRARPPRLPRPRPRPSIGPRP,0.111
13,RRIRPRPPRLPRPRPRPGRIPRP,0.0185
14,RRIRSRPPRLPRPRPRPQAVPRP,0.197
15,RRIRRRPPRLPRPRPRPGQDPRP,0.112
16,RRIRMRPPRLPRPRPRPFMCPRP,-0.171
17,RRIRQRPPRLPRPRPRPYDAPRP,0.0382
18,RRIRWRPPRLPRPRPRPTMPPRP,0.256
19,RRIRARPPRLPRPRPRPLIHPRP,-0.117
20,RRIRCRPPRLPRPRPRPIDDPRP,-0.0196
21,RRIRIRPPRLPRPRPRPASIPRP,-0.361
22,RRIRFRPPRLPRPRPRPTWSPRP,0.188
23,RRIRGRPPRLPRPRPRPERQPRP,0.101
24,RRIRIRPPRLPRPRPRPSVHPRP,-0.278
25,RRIRCRPPRLPRPRPRPCFAPRP,-0.162

row,Sequence,shrunken log2 fold change
1,RRIRYRPPRLPRPRPRPAERPRP,0.0541
2,RRIRVRPPRLPRPRPRPYVTPRP,0.0974
3,RRIRPRPPRLPRPRPRPYHTPRP,-1.66
4,RRIRKRPPRLPRPRPRPDNVPRP,-0.0064
5,RRIRGRPPRLPRPRPRPQHGPRP,0.137
6,RRIRQRPPRLPRPRPRPMWRPRP,0.279
7,RRIRSRPPRLPRPRPRPVHNPRP,0.0673
8,RRIRQRPPRLPRPRPRPGVNPRP,-0.343
9,RRIRNRPPRLPRPRPRPRRDPRP,-0.0239
10,RRIRSRPPRLPRPRPRPVVHPRP,-0.126
11,RRIRIRPPRLPRPRPRPAPWPRP,0.0917
12,RRIRERPPRLPRPRPRPLSVPRP,-0.642
13,RRIRWRPPRLPRPRPRPWYKPRP,-0.1
14,RRIRRRPPRLPRPRPRPSAFPRP,1.27
15,RRIRERPPRLPRPRPRPEMYPRP,-0.00136
16,RRIRERPPRLPRPRPRPENPPRP,0.142
17,RRIRIRPPRLPRPRPRPSMKPRP,-0.56
18,RRIRVRPPRLPRPRPRPQVCPRP,-0.0138
19,RRIRWRPPRLPRPRPRPKTMPRP,0.35
20,RRIRWRPPRLPRPRPRPEEEPRP,0.00738
21,RRIRMRPPRLPRPRPRPDSCPRP,-0.00101
22,RRIRYRPPRLPRPRPRPDHGPRP,-0.0075
23,RRIRKRPPRLPRPRPRPINHPRP,-0.408
24,RRIRRRPPRLPRPRPRPMRGPRP,1.38
25,RRIRKRPPRLPRPRPRPAPDPRP,0.598
